In assay [1] the target is T1, mouse 4-1BB on HEK293 cells (mouse, UniProt P20334 24-256).
T1 construct: whole, on cells
T1 sequence (looked up): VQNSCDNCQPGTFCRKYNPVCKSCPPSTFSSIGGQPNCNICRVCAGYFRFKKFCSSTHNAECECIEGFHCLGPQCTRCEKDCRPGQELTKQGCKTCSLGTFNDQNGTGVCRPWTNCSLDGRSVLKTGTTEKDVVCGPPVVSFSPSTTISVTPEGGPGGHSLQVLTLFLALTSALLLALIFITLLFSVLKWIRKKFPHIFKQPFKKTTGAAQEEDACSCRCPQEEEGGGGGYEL
The experiment in a line: FACS, HEK293 mouse 4-1BB. The procedure:
To determine species specificity and relative binding affinities of the test antibodies, cell lines were generated to exogenously express 4-1BB on the membrane. HEK293 cells were transfected with a plasmid expressing the human, cynomolgus, or mouse 4-1BB proteins. Stable, high expressing populations were sorted on the MoFlo sorter (Beckman) and maintained in DMEM, 10% fetal bovine serum, containing 500 μg/mL G418. For the assay, cells were dissociated with trypsin, resuspended at 5×10⁶ cells/mL and transferred to the 500 μL polypropylene plate (Nunc) at 50 μL/well (250,000 cells/well). […] Cells were washed twice with 250 μL/PBS (Hyclone) per well. PE-labelled detection antibodies were added at 1:250 dilution of stock, 50 μL/well, and incubated for 20 minutes at room temperature. The following detection antibodies were used: Goat anti-Rat IgG-PE (Southern Biotech), Goat anti-Mouse IgG-PE (Southern Biotech) or Goat anti-Human IgG-PE (Southern Biotech). Cells were washed once and fixed with PBS containing 1% Formaldehyde. Plate was analyzed for fluorescence on the FACSCalibur (Becton Dickinson).

Assay [2] has as its target T2, MSLN (binding assays of Example 4, Table 4-2) (Homo sapiens (Human), UniProt Q13421 296-598).
T2 construct: also called mesothelin
The experiment in a line: antigen binding, format not stated.

The target in another assay is T3, cynomolgus mesothelin (cynomolgus).
T3 construct: also called cynoMSLN; Cyno MSLN
The experiment in a line: SPR.

For a further assay, the target named is T4, human mesothelin (human, UniProt Q13421 296-580, limits assumed).
T4 construct: also called Human MSLN
T4 sequence (Q13421 other isoform, or with tags, fused parts or gaps limits assumed): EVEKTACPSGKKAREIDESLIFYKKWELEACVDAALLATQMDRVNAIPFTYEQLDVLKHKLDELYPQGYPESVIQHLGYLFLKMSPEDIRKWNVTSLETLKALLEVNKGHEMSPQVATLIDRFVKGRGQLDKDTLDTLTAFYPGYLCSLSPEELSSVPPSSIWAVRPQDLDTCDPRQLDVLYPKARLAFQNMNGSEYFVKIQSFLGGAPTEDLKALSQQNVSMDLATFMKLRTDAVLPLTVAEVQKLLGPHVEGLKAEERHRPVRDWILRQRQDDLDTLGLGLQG
The experiment in a line: SPR. A general note: Surface plasmon resonance follows binding to a sensor surface in real time, without labels.

The target of assay [3] is T5, mesothelin on cells (endogenous on SN12C, OVCAR3, SW1990); HEK293 cells expressing cell-surface human … (human, UniProt Q13421 296-598).
T5 construct: whole, on cells; also called cell-surface MSLN
T5 sequence (Q13421 other isoform, or with tags, fused parts or gaps limits assumed): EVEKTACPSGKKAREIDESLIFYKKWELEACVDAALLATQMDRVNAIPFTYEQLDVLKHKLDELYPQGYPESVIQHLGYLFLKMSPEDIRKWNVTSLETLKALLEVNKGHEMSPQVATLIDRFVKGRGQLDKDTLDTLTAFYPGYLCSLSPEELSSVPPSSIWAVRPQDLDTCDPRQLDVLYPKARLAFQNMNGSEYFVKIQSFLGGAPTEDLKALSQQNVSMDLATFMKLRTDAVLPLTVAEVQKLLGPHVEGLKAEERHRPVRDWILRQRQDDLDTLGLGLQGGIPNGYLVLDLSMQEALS
Briefly: FACS, OVCAR3 (CA125+). Here is the method:
(§1) The binding of anti-mesothelin affinity matured variants was measured by FACS on the ovarian cancer cell line OVCAR3, the pancreatic cancer cell line SW1990, and the renal cancer cell line SN12C. Both OVCAR3 and SW1990 express CA125, but CA125 expression on SN12C cells was not detected.
Background: Flow cytometry measures light scatter and fluorescence of single cells or particles in a stream.

For assay [4], the target named is T5, mesothelin on cells (endogenous on …). The experiment in a line: FACS, SN12C (CA125-). The procedure: as §1
Assay [5] deals with human CD40 on cells (HEK293 stable transfectants, HEK-Blue CD40 cells, human B cells, monocytic cells, … (human, UniProt P25942 21-277)). The experiment in a line: cell-based or functional assay.
Sequence of human CD40 on cells (HEK293 stable transfectants, HEK-Blue CD40 cells, human B cells, monocytic cells, … (P25942 21-277 limits assumed): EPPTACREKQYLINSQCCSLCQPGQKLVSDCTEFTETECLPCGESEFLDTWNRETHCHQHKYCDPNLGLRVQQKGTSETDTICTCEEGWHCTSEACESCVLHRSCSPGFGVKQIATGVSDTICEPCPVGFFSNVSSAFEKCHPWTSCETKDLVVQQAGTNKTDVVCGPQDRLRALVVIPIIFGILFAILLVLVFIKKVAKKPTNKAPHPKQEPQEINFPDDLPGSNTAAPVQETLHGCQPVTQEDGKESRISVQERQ
Assay [6] concerns the target CD40 (binding assays of Example 4, Table 4-2). The experiment in a line: antigen binding, format not stated.
Assay [7] has as its target T6, soluble form of the extracellular domain of human CD40 (Creative BioMart) (human, UniProt P25942 21-193).
T6 construct: Bought
Briefly: SPR, Ab captured. Here is the method:
(§2) CD40 binding kinetics was analyzed by surface plasmon resonance assay with a Biacore T200 instrument (Table 1-5). Briefly, a goat anti-mouse Fc antibody (Pierce) or goat anti-human Fc (Pierce) was immobilized on a CM5 sensor chip, followed by capture of the anti-CD40 antibodies on the test surface. Subsequently, the soluble form of the extracellular domain of human CD40 (Creative BioMart) or cynomolgus (cyno) CD40 (Creative BioMart) was injected, and the binding and dissociation were measured.

Assay [8] concerns the target T7, soluble form of the extracellular domain of cynomolgus (cyno) CD40 (Creative BioMart) (cynomolgus, UniProt G7PG38 21-193).
T7 construct: extracellular domain; also called Cynomolgus CD40
The experiment in a line: SPR, Ab captured. The procedure:
as §2

Another assay has as its target T8, dog CD40 (dog, UniProt Q7YRL5 21-194, limits assumed).
T8 sequence (looked up): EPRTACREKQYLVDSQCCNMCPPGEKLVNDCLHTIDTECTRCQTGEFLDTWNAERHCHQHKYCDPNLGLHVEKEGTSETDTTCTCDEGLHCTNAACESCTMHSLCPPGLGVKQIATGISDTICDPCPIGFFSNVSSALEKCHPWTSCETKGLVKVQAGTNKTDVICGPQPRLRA
The experiment in a line: FACS.

In the next assay the target is T9, mouse CD40 (mouse, UniProt P27512 20-193, limits assumed).
T9 construct: also called murine CD40
T9 sequence (looked up): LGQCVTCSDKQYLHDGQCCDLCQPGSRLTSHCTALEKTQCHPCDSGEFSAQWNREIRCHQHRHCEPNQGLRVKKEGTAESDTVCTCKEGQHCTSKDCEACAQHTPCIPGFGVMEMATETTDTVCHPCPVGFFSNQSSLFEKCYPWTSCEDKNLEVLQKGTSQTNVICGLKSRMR
The experiment in a line: FACS.

Substitutions are numbered along the chain they refer to. Numbers in names are those of the source.

Sequence of CD40 (binding assays of Example 4, Table 4-2) (P25942 21-277): as the sequence (P25942 21-277 limits assumed) above
T6 sequence (P25942 21-193 limits assumed): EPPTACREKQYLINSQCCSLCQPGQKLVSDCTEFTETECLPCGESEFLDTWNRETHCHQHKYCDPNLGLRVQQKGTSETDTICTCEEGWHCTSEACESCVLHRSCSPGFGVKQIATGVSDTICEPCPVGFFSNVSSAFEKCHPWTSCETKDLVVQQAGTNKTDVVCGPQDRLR

B1: hu106-1 mIgG1 (antibody, V domains shown)
VH: EVQLVQSGAEVKKPGSSVKVSCKASGYTFTSYYIYWVRQAPGQGLEWIGNIWPGNGGTFYGEKFMGRATFTADTSTSTAYMELSSLRSEDTAVYYCARRPDYSGDDYFDYWGQGTLVTVSS
VL: NVMLTQPHSVSESPGKTVTISCKLNSGNIGSYYVHWYQQRPGSSPTTMIYRDDKRPDGVPDRFSGSIDSSSNSASLTISGLKTEDEADYYCHSYDSTITPVFGGGTKLTVL
notes: also called hu106-1 with the muIgG1 constant region
As usually defined, the EC50 is the concentration at which the effect is half-maximal. A higher EC50 goes with a less potent agent. In [1], B1 returned an EC50 of 0.69 nM.

B2: hu106-1 T252M mIgG1 (antibody, V domains shown)
VH: B1 VH
VL: B1 VL
notes: also called hu106-1 mIgG1 T252M
B2 showed an EC50 in assay [1] of 0.95 nM.

B3: HuAM15 (antibody, V domains shown)
VH: EVQLVQSGAEVKKPGASVKVSCKASGDTFKRYYVHWVRQAPGQGLEWMGIINPSGVSTTYAQKFQGRVTMTRDTSTSTVYMELSSLRSEDTAVYYCAEVRGSGFNYFGMDVWGQGTLVTVSS
VL: SYELTQPPSVSVSPGQTASITCSGDKLGDKYASWYQQKPGQSPVLVIYQDNRRPSGIPERFSGSNSGNTATLTISGTQAMDEADYYCQAWDSDTYVFGTGTKVTVL
notes: fully human antibody
One may read the Kd as the equilibrium constant for the complex coming apart. A word on the koff: it is a measure of how fast the partners let go of each other. By kon is commonly meant the rate constant with which the complex forms. A low value points to slower complex formation. As for B3, the EC50 in [2] worked out at 0.9 µg/mL. In the assay with cynomolgus mesothelin, the equilibrium dissociation constant (Kd) stood at 4.5 nM, the koff came out at 0.00018 s⁻¹ and the on-rate (kon) was found to be 40000 M⁻¹ s⁻¹. Also, in the assay with human mesothelin, the Kd turned out to be 0.31 nM, the koff was 1.3e-05 s⁻¹ and the kon was found to be 44000 M⁻¹ s⁻¹. In addition, in assay [3], the response was half-maximal at 0.7 µg/mL (EC50) and the “Maximum binding (MFI)” value amounted to 3550 MFI. Moreover, in assay [4], the EC50 came out at 0.07 µg/mL and the “Maximum binding (MFI)” value turned out to be 9390 MFI.

B4: huAb8-1 (antibody, human IgG1, V domains shown)
VH: EVQLVQSGAEVKKPGSSVKVSCKASGYTFTDYYINWVRQAPGQGLEWIGWIFPGSGSVYCNEQFKGRATLTVDRSTSTAYMELSSLRSEDTAVYFCASSLGKFAYWGQGTLVTVSS
VL: DIQMTQSPSSLSASVGDRVTITCKASQSVVTAVAWYQQKPGKSPKLLIYSASNRYTGVPSRFSGSGSGTDFTLTISSLQPEDFATYFCQQYSSYPYTFGGGTKVEIK
notes: human IgG1, kappa
Take B4: the “NF-κB activation EC50, HEK293 CD40 NFκB reporter cells” value in assay [5] was 0.14 µg/mL. Moreover, the EC50 in assay [6] stood at 0.4 µg/mL. In assay [7], the Kd came to 3 nM, the koff came out at 0.0023 s⁻¹ and the kon stood at 770000 M⁻¹ s⁻¹. In assay [8], the Kd is 7.1 nM, the koff was 0.0071 s⁻¹ and the on-rate constant (kon) was 1e+06 M⁻¹ s⁻¹. In addition, the binding result in the assay with dog CD40 was “no binding”. Besides, the binding result in the assay with mouse CD40 is reported as “no binding”.

B5: huAb9-5 (antibody, human IgG1, kappa)
heavy: not shown
light: DAVMTQTPLSLSVTPGQPASISCRSSQSLENTNGNTFLNWYLQKPGQSPQLLIYRVSNRFSGVPDRFSGSGSGTDFTLKISRVEAEDVGVYYCLQVTHVPFTFGQGTKLEIKRTVAAPSVFIFPPSDEQLKSGTASVVCLLNNFYPREAKVQWKVDNALQSGNSQESVTEQDSKDSTYSLSSTLTLSKADYEKHKVYACEVTHQGLSSPVTKSFNRGEC
notes: human IgG1, kappa
As for B5, the “NF-κB activation EC50, HEK293 CD40 NFκB reporter cells” value in [5] is 1.13 µg/mL. The same molecule gave an EC50 in assay [6] of 0.2 µg/mL. Besides, the results for the Kd in assay [7] and in assay [8] were 15 nM and 13 nM, respectively. Moreover, the results for the koff in assay [7] and in [8] were 0.026 s⁻¹ and 0.024 s⁻¹, respectively. The kon in assay [7] is 1.7e+06 M⁻¹ s⁻¹; in assay [8] it was 1.8e+06 M⁻¹ s⁻¹. The binding result in the assay with dog CD40 and in the assay with mouse CD40 was “no binding” throughout.

B6: Hu106mPSMA-3 (bispecific antibody)
chain: EVQLVQSGAEVKKPGSSVKVSCKASGYTFTSYYIYWVRQAPGQGLEWIGNIWPGNGGTFYGEKFMGRATFTADTSTSTAYMELSSLRSEDTAVYYCARRPDYSGDDYFDYWGQGTLVTVSSGGGGSGGGGSGGGGSGGGGSGGGGSGGGGSNVMLTQPHSVSESPGKTVTISCKLNSGNIGSYYVHWYQQRPGSSPTTMIYRDDKRPDGVPDRFSGSIDSSSNSASLTISGLKTEDEADYYCHSYDSTITPVFGGGTKLTVLGQVPRDSGCKPCICTVPEVSSVFIFPPKPKDVLMITLTPKVTCVVVDISKDDPEVQFSWFVDDVEVHTAQTQPREEQFNSTFRSVSELPIMHQDWLNGKEFKCRVNSAAFPAPIEKTISKTKGRPKAPQVYTIPPPKEQMAKDKVSLTCMITDFFPEDITVEWQWNGQPAENYKNTQPIMDTDGSYFVYSKLNVQKSNWEAGNTFTCSVLHEGLHNHHTEKSLSHSPGKGGGGSGGGSGGGSGGGGSEVKLVESEGGLVQPGSSMKLSCTASGFTFSDYYMAWVRQVPEKGLEWVANINYDGTTTYYLDSLKSRFIISRDNSKNILYLQMSSLKSEDTATYYCARVLDGYYGYFDYWGQGTTLSVSSGGGGSGGGGSGGGGSGGGGSGGGGSGGGGSQIVLTQSPAIMSASPGEKVTISCSASSSVSYMYWYQQKPGSSPKPWIYRTYNLASGVPARFSGSGSGTSYSLTISSMEAEDAATYYCQQSHTYPPTFGGGTKLEIKR
notes: contains T252M
For the molecule B6, in [1], the EC50 is 1.1 nM.

B7: Hu106mPSMA-4 (bispecific antibody)
chain: B6 chain with N341A
notes: contains T252M and N297A
For the molecule B7, in assay [1], the EC50 came out at 1 nM.

B8: B39 (bispecific antibody, IgG2)
chain: EVQLQESGPGLVKPSETLSLTCTVSGYSITSNYYWNWIRQPPGKGLEWMGYIRYDGSNNYNPSLKNRVTISRDTSKNQFSLKLSSVTAADTAVYYCARLDYWGQGTTVTVSSDLSGGGGSGGGGSGGGGSGGGGSTGDAVMTQTPLSLSVTPGQPASISCRSSQSLENTNGNTFLNWYLQKPGQSPQLLIYRVSNRFSGVPDRFSGSGSGTDFTLKISRVEAEDVGVYYCLQVTHVPFTFGQGTKLEIKRVERKSSVECPPCPAPPVAGPSVFLFPPKPKDTLMISRTPEVTCVVVDVSHEDPEVQFNWYVDGVEVHNAKTKPREEQFNSTFRVVSVLTVVHQDWLNGKEYKCKVSNKGLPAPIEKTISKTKGQPREPQVYTLPPSREEMTKNQVSLTCLVKGFYPSDIAVEWESNGQPENNYKTTPPMLDSDGSFFLYSKLTVDKSRWQQGNVFSCSVMHEALHNHYTQKSLSLSPGKVDGASSPVNVSSPSVQDIEVQLVQSGAEVKKPGASVKVSCKASGDTFKRYYVHWVRQAPGQGLEWMGIINPSGVSTTYAQKFQGRVTMTRDTSTSTVYMELSSLRSEDTAVYYCAEVRGSGFNYFGMDVWGQGTLVTVSSDLSGGGGSGGGGSGGGGSGGGGSTGSYELTQPPSVSVSPGQTASITCSGDKLGDKYASWYQQKPGQSPVLVIYQDNRRPSGIPERFSGSNSGNTATLTISGTQAMDEADYYCQAWDSDTYVFGTGTKVTVLGQ
notes: scFv-Fc-scFv, huIgG2
In the case of B8, the figures for the EC50 in assay [6] and in assay [2] were 0.5 µg/mL and 7.4 µg/mL, respectively.
